# From patent publication US20220177590A1 (REMEGEN, published 2022)
# Tests used:
# PD-L1 (Fc Tag) [1] = molecular target: T1, PD-L1 (Fc Tag) (human, UniProt Q9NZQ7 19-239, limits assumed); experiment: competition ELISA, PD-L1 (Fc Tag) coated, human PD-1 at a fixed concentration as the competing ligand, hAAG5D8 titrated
# T1 construct: also called human PD-L1; not shown: Fc tag
# Method: (§1) The ability of hAAG5D8 to compete with PD-1 to bind to PD-L1 was tested by ELISA. PD-L1 (Fc Tag) was diluted to 1 μg/mL with a coating buffer (6 mM Na₂CO₃, 14 mM NaHCO₃), and then added 100 μL to each well followed by overnight incubation at 4° C. The plate was then washed with PBST, and added with 250 μL of a blocking solution (3% BSA/PBST) to each well to block for 2 h at 25° C. Afterwards, the plate was washed with PBST and added with 50 μL of human PD-1 at a concentration of 6 μg/mL as well as 50 μL of a gradiently diluted hAAG5D8 solution (at a concentration of 8000 ng/mL, 2000 ng/mL, 500 ng/mL, 250 ng/mL, 125 ng/mL, 62.5 ng/mL, 31.25 ng/mL, 6.25 ng/mL, or 1.25 ng/mL) to each well followed by mixing well and incubation at 25° C. for 2 h. Next, the plate was washed with PBST and added with 100 μL of an enzyme-labeled secondary antibody (goat anti-human IgG-Fc-HRP diluted 1:5000) to each well, followed by incubation at 25° C. for 1 h. Finally, color development was performed and values were read at 450 nm. A four-parameter equation was used for curve fitting to calculate the EC₅₀ value.
# (§2) Results and conclusions: EC₅₀ value and the competitive binding curve of hAAG5D8 competitively binding to human PD-L1 are shown in Table 8 and FIG. 2, respectively.
# PD-L1 (Fc Tag) [2] = molecular target: T1, PD-L1 (Fc Tag); experiment: competition ELISA, PD-L1 (Fc Tag) coated, human PD-1 at 6 ug/mL as competitor, anti-human IgG-Fc-HRP detection
# Method: as §1, §2
# [3] = molecular target: T2, human PD-L1 (R&D company), immobilized on Ni-NTA probe (human, UniProt Q9NZQ7 19-239); experiment: BLI, PD-L1 immobilized on Ni-NTA probe, hAAG5D8 at 100, 50 and 25 nM in solution
# T2 construct: Bought protein; also called PD-L1 solution; not shown: His tag only implied by capture on the Ni-NTA probe
# Method: The affinity of hAAG5D8 to human PD-L1 was detected using biolayer interferometry (BLI). The wells in A-D columns 1, 3, and 5 of a black 96-well plate were added with a PBS solution as baseline 1, baseline 2 and a dissociation solution, respectively. The wells in column 2 were added with a PD-L1 solution (R&D company), in column 4 with a hAAG5D8 solution (The concentrations were as follows: 100 nM, 50 nM, 25 nM, and 0 nM), in column 10 with an imidazole solution, in column 11 with water, and in column 12 with a nickel sulfate solution. Ni-NTA probe (Fortebio) was employed in the experiment. First, the probe was dipped in A-D column 1 for 180 seconds to stabilize the baseline. The Ni-NTA probe was then dipped in A-D column 2 for 300 seconds to immobilize PD-L1 on the probe. The Ni-NTA probe was then dipped in A-D column 3 for 120 seconds to stabilize the baseline. The Ni-NTA probe was then dipped in A-D column 4 for 600 seconds to allow the binding of hAAG5D8 with a different concentration to the immobilized PD-L1 protein on the probe. The Ni-NTA probe was then dipped in A-D column 5 for 600 seconds to allow the antibody to dissociate spontaneously. Finally, the Ni-NTA probe was dipped in A-D columns 10, 11, and 12 successively to force the immobilized PD-L1 dissociating from the probe. […]
# T1 sequence (Q9NZQ7 19-239 limits assumed): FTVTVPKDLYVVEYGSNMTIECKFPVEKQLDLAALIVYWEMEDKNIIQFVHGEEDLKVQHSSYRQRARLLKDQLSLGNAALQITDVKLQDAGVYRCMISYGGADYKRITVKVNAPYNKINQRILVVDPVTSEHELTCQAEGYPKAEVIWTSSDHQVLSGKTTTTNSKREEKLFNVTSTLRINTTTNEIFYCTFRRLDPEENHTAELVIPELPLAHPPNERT
# T2 sequence (Q9NZQ7 19-239): as the sequence (Q9NZQ7 19-239 limits assumed) above
binder,measurement,setting,value
"anti-PD-L1 humanized antibody hAAG5D8 (antibody, human IgG1, kappa, V domains shown, Humanized from murine mAAG5D8 on a human IgG1 framework; also called anti-PD-L1 antibody) VH: QVQLQESGPGLVKPSETLSLTCTVSGFSLSRYSVHWIRQPPGKGLEWLGMIWGVGTTDYNSALKSRLTISKDTSKNQFSLKLSSVTAADTAVYYCARNWGTADYFDYWGQGTTVTVSS VL: DIVLTQSPASLAVSPGQRATITCRASKSVHTSGYSYMHWYQQKPGQPPKLLIYLASNLESGVPARFSGSGSGTDFTLTINPVEANDTANYYCQHSGELPYTFGGGTKVEIKR",IC50 (read off the curve),PD-L1 (Fc Tag) [1],~0.1 µg/mL
same,EC50,PD-L1 (Fc Tag) [2],0.716 nM
same,Kd,[3],0.0762 nM
